Experiments:
[1] = tested on: NFAT-luc2 Jurkat cells; test: Lenalidomide-induced degradation of anti-BCMA CAR constructs transfected in Jurkat cells (flow cytometry, BCMA-Fc staining); type: cell-based; settings: 10 μM lenalidomide vs DMSO, 24 hour, FIG. 5
Procedure: NFAT-luc2 Jurkat cells (Promega) to a density of 2×10^5 cells/ml were cultured in RPMI medium 1640 (1×) without L-glutamine with phenol red (Gibco), 10% (v/v) Fetal Bovine Serum (FBS) Heat-Inactivated (Gibco), 1% (v/v) Minimum essential medium non-essential amino acids (MEM NEAA) (ThermoFisher), 1% (v/v) Sodium Pyruvate (Sigma), 1% (v/v) L-Glutamine (Gibco). 20 μg of plasmid DNA was mixed with 8×10^6 NFAT-luc2 Jurkat cells and cells were transfected using the 4D-Nucleofector (Lonza) with cell Line SE Nucleofector kit (Lonza) by following manufacturer instructions with program CL-120. Cells were incubated at 37° C. with 5% CO2 for 48 h. Lenalidomide at a stock concentration of 10 mM in 100% DMSO was diluted in Jurkat media to achieve a stock concentration of 250 μM. Using the 250 μM stock, NFAT-luc2 Jurkat cells were incubated at a final compound concentration of 10 μM or 0 μM (DMSO in media) for 24 hour at 37° C. with 5% CO2. Final DMSO concentration was 0.1% in all wells. Cells were then stained with AlexaFluor 647 conjugated BCMA-Fc to label the anti-BCMA CAR. Measurements were made using a Cytoflex S (Beckman Coulter) and data analysed using FlowJo.

[2] = tested on: primary T-cells co-cultured with ARH-77-10B5 cells; test: Cytokine release from CAR-transduced primary T-cells co-cultured with BCMA-expressing ARH-77-10B5 cells, with or without lenalidomide (MSD V-plex); type: cell-based, human; settings: 10 μM lenalidomide compared with no lenalidomide treatment; after antigen presentation, 24 h co-culture 1:1 with ARH-77-10B5; FIG. 7
Procedure: For lentiviral vector production, 3.0×10^7 LentiX 293T (HEK 293T) cells were seeded in 20 mL DMEM (Gibco) and were incubated overnight at 37° C. with 5% CO2. LentiX cells were transfected by mixing, for example, 21 μg of transfer vector containing the construct, 3.75 μg ViraSafe pRSV-Rev, 5.25 μg ViraSafe pCMV-VSVG, 7.5 μg ViraSafe pCgp V-(gag-pol), 75 μg jetPRIME (Polyplus) and […] jetPRIME Buffer (Polyplus). After 2 days, supernatants were clarified and virus was concentrated and purified by ultracentrifugation on a 20% sucrose cushion using Ultrapure sucrose (ThermoFisher) in 50 ml Oak Ridge PPCO ultracentrifugation tubes (ThermoFisher). Lentiviral vectors were produced for CONSTRUCT 4 and CONSTRUCT 5 using the method described above. […]
7 days after transduction, lenalidomide at a stock concentration of 10 mM in 100% DMSO was diluted in TEXMacs media to achieve a stock concentration of 250 μM, and 5×10^4 T-cells were incubated at a final compound concentration of 10 μM or 0 μM (DMSO in media) for 16 h at 37° C. with 5% CO2. […] Supernatants were analysed for cytokine levels using MSD V-plex Proinflammatory Panel 1 Human Kit (MSD) and MSD Sector Imager (MSD).

B1: CONSTRUCT 4: conventional anti-BCMA CAR: scFv, CD8a hinge and transmembrane, 4-1BB co-stimulatory, CD3 intracellular domains; no degron (control) (protein)
chain: MALPVTALLLPLALLLHAARPQVQLVQSGAEVKKPGSSVKVSCKGSGYTFTNYWMHWVRQAPGQGLEWIGATYRGHSDTYYNQKFKGRATLTADTSTSTAYMELSSLRSEDTAVYYCTRGAIYDGYDVLDNWGQGTLVTVSSGGGGSGGGGSGGGGSGGGGSDIQMTQSPSSLSASVGDRVTITCSASQDISNYLNWYQQKPGKAPKLLIYYTSNLHSGVPSRFSGSGSGTDFTLTISSLQPEDFATYYCQQYRKLPWTFGQGTKLEIKRFVPVFLPAKPTTTPAPRPPTPAPTIASQPLSLRPEACRPAAGGAVHTRGLDFACDIYIWAPLAGTCGVLLLSLVITLYCNHRNKRGRKKLLYIFKQPFMRPVQTTQEEDGCSCRFPEEEEGGCELRVKFSRSADAPAYQQGQNQLYNELNLGRREEYDVLDKRRGRDPEMGGKPRRKNPQEGLYNELQKDKMAEAYSEIGMKGERRRGKGHDGLYQGLSTATKDTYDALHMQALPPR
modifications: Construct 4 Amino Acid Sequence
expression level of CAR molecules on the surface of Jurkat cells [1]: unaffected | TNFα, IL2 and IFN-γ levels in T-cell supernatants [2]: increased levels of cytokines concentrations

Reference: patent US11427643B2, “Targeted protein degradation” (GLAXOSMITHKLINE INTELLECTUAL PROPERTY DEVELOPMENT LIMITED, priority 2017, dated 2022)
